By Ki is commonly meant a dissociation constant, usually derived from enzyme kinetics or from competition with a known ligand.

The test concerns the target T1, TEM-1 β-lactamase (UniProt P62593 24-286).
T1 construct: TEM-1 β-lactamase (class A); whether the construct carries a tag or its signal peptide is not known; also called TEM-1 enzyme; source: E. coli haboring pRSET-K/TEM-1 β-lactamase (lab stock); production procedure in Additional file 1: Methods
In words: enzyme inhibition assay (nitrocefin hydrolysis, free β-lactamase against inhibitor concentration); 1.5 nM TEM-1 β-lactamase pre-incubated with 0–15 nM BLIP in 50 mM sodium phosphate buffer with 1 mg/mL bovine serum albumin for 2 h at 25 °C; then 21 μM nitrocefin, absorbance at 500 nm; nonlinear fit to Eq. 1; Ki* (equilibrium dissociation constant) equivalent to Ki.

T1 sequence (P62593 24-286): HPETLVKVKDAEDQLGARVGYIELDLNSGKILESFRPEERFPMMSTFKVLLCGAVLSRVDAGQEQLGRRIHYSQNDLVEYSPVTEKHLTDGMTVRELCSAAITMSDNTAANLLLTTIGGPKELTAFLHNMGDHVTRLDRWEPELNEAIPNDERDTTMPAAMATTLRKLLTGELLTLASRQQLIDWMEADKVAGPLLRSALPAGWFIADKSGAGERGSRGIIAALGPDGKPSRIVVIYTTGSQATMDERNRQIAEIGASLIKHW

B1: β-Lactamase inhibitory protein (BLIP), recombinant, secreted by P. pastoris (EAEAEF-mature BLIP) (natural protein, Streptomyces clavuligerus)
chain: EAEAEFAGVMTGAKFTQIQFGMTRQQVLDIAGAENCETGGSFGDSIHCRGHAAGDYYAYATFGFTSAAADAKVDSKSQEKLLAPSAPTLTLAKFNQVTVGMTRAQVLATVGQGSCTTWSEYYPAYPSTAGVTLSLSCFDVDGYSSTGFYRGSAHLWFTDGVLQGKRQWDLV
notes: peptide left at the N-terminus after Kex2 cleavage of the α-factor mating signal; the blip gene's own terminator was kept, so no C-terminal vector tags are expected (calculated mass 18,219.25 matches EAEAEF-mature BLIP); also called recombinant BLIP; P. pastoris-expressed BLIP; source: P. pastoris X-33 (pPICZαA/BLIP, methanol induction), secreted; recovered from the culture supernatant without …
In the case of B1, the Ki worked out at 0.55 ± 0.07 nM.

For the origin of these results see article PMC5910447, “Efficient production of secretory Streptomyces clavuligerus β-lactamase inhibitory protein (BLIP) in Pichia pastoris” (AMB Express, 2018).
